We go through four substances from patent US8252737B2, “Antimicrobial peptides and methods of use” (priority 2004, dated 2012).

Square brackets hold non-standard residues; d marks the D form. Ends that are not written are not given here.

Series [1] can be described thus: Circular dichroism spectroscopy of helical structure (benign buffer and 50% TFE). Particulars: 25° C.; for % helix 50% TFE / % helix Benign: relative to NAL in 50% TFE; for [θ]222 Benign: benign buffer (100 mM KCl, 50 mM PO4 pH 7.0); for [θ]222 50% TFE: benign buffer diluted 1:1 (v/v) with TFE; for % helix Benign: benign buffer. It counts as physicochemical. Here is the method: To determine the secondary structure of peptides in different environments, circular dichroism (CD) spectra of the peptide analogs were measured under physiologically related pH and ionic strength (100 mM KCl, 50 mM aq. PO4, pH 7 referred to as benign conditions) and also in 50% TFE to mimic the hydrophobic environment of the membrane. […] On the non-polar face, the native L-Val residue was critical in maintaining α-helical structure. […] Even the substitution with L-Ala, which is known to have the highest α-helical propensity of all 20 amino acids (34), could not stabilize the α-helical structure. […] It is noteworthy that, on the non-polar face, the magnitude of the helical content of L-peptides in benign buffer was related to the hydrophobicity of the substituting amino acids, i.e., NLL>NVL>NAL>NSL, NKL, again showing the importance of hydrophobicity on the non-polar face in maintaining the α-helical structure. […] However, whether L- or D-substitutions were made on the non-polar face, high helical structure could be induced by the hydrophobic environment of 50% TFE, a mimic of the membrane's hydrophobicity and α-helix inducing ability (Table 3).
To determine the secondary structure of the D-enantiomeric peptides in different environments, CD spectra of the peptide analogs were measured under benign conditions (100 mM KCl, 50 mM KH2PO4/K2HPO4, pH 7.4, referred to as KP buffer) and also in 50% trifluoroethanol (TFE) to mimic the hydrophobic environment of the membrane. […] However, in the presence of 50% TFE, all three L-peptides were fully folded α-helical structures with similar ellipticities and helicity (Table 4).
Characterization of Helical Structure—The mean residue molar ellipticities of peptides were determined by circular dichroism (CD) spectroscopy, using a Jasco J-720 spectropolarimeter (Jasco, Easton, Md.), at 25° C. under benign conditions (50 mM KH2PO4/K2HPO4/100 mM KCl, pH 7), as well as in the presence of an α-helix inducing solvent, 2,2,2-trifluoroethanol (TFE) (50 mM KH2PO4/K2HPO4/100 mM KCl, pH 7 buffer/50% TFE). A 10-fold dilution of a ˜500 μM stock solution of the peptide analogs was loaded into a 0.02 cm fused silica cell and its ellipticity scanned from 190 to 250 nm. The values of molar ellipticities of the peptide analogs at a wavelength of 222 nm were used to estimate the relative α-helicity of the peptides.

A short description of series [2]: RP-HPLC temperature profiling (hydrophobicity and self-association/dimerization parameter PA). It counts as physicochemical. To be noted: for tR (min) 5° C.: RP-HPLC retention time at 5° C. during temperature profiling (measure of hydrophobicity); for tR (min) 80° C.: RP-HPLC retention time at 80° C. during temperature profiling; for tR (min) Max: maximal RP-HPLC retention time during temperature profiling 5-80° C.; for PA (min) association parameter: maximal retention time difference relative to control peptide C within 5-80° C.; for overall hydrophobicity change relative to PVL: RP-HPLC retention time difference at 80° C.; for overall hydrophobicity change relative to PVL / ΔtR (X-PSL) (min) 5° C. / ΔtR (X-PSL) (min) 80° C.: polar face substitutions; for ΔtR (X-PSL) (min) 5° C.: retention time difference relative to native peptide V681 (PSL) at 5° C.; for ΔtR (X-PSL) (min) 80° C.: retention time difference relative to native peptide V681 (PSL) at 80° C. As for the experimental part:
The retention time data for the peptides is shown in Table 5 which records retention times at 5° C., the maximal retention times and retention times at 80° C. during the temperature profiling. Temperatures of 5° C. and 80° C. were the lower and upper temperature limits of temperature profiling in RP-HPLC, representing dimerization of the peptides at 5° C. and the monomerization of peptides at 80° C. due to dissociation of the dimers. The maximal retention times represent the threshold points at which peptides transform from dimeric to monomeric form. Among the non-polar face substituted peptides, peptides with more hydrophobic substitutions (whether L- or D-amino acid substitutions) were more retained during RP-HPLC, i.e., peptides were eluted in the order of Lys, Gly, Ser, Ala, Val and Leu (Table 5). In addition, on the non-polar face, the L-analogs were always more retained than the D-diastereomers (Table 5, FIG. 5). […] In contrast, on the polar face, the elution order of peptides was not correlated with the order of amino acid side-chain hydrophobicity, e.g., PAL and PSL were more retained than PVL (Table 5); PSD was the most retained peptide among the D-amino acid substituted analogs on the polar face (Table 5).
The ability of the D-peptides to self-associate was determined by RP-HPLC temperature profiling. […] As expected, L- and D-peptide enantiomers were totally inseparable over this temperature range, since each pair of peptides is identical in sequence and must adopt identical conformations on interacting with the reversed-phase matrix, whether in an all-L- or all-D-conformation. RP-HPLC retention behavior has been frequently utilized to represent overall peptide hydrophobicity (53, 26). In the present study, the hydrophobicity of the three peptide pairs is in the order V681/D-V681>[…]>NKL/D-NKD (Table 4), which agrees with the change in hydrophobicity of the substitutions at position 13 in order of the most hydrophobic to the least hydrophobic amino acid residue (Val in V681>Ala in NA>Lys in NK) (54). […] For example, the retention times of peptides V681/D-V681 increase with increasing temperature (up to ˜30° C.) followed by a retention time decrease with a further temperature increase. […] Since peptide C is a monomeric random coil peptide in both aqueous and hydrophobic media, its retention behavior over the temperature range 5° C. to 80° C. represents only general temperature effects on peptide retention behavior, i.e., a linear decrease in peptide retention time with increasing temperature due to greater solute diffusivity and enhanced mass transfer between the stationary and mobile phases at higher temperatures (55). Thus, after normalization to the retention times of peptide C, the retention behavior of the peptides represents only peptide self-association ability. Note that the higher the PA value, the greater the self-association ability. […] From Table 4, it is also clear that the peptide retention times at 80° C. are dramatically lower than those at 5° C.
Elution times during RP-HPLC have frequently been utilized as a measure of relative hydrophobicity of peptide analogs (26, 31). In the current study, peptide analogs differed only by a single amino acid substitution on either the non-polar face or the polar face of V681; thus, the retention time data in Table 5 can be considered to reflect the hydrophobicity difference between peptide analogs. In order to more easily visualize the variation in hydrophobicity of the peptide analogs, the retention time data in Table 5 were normalized relative to that of the native peptide V681 at 5° C. and 80° C., respectively. Hydrophobicity relative to the native peptide V681 indicates an increase or decrease of the apparent peptide hydrophobicity with the different amino acid substitutions on the polar or non-polar face. […]

For the substance “NLD: V681 analog with D-Leu at position 13 (non-polar face) (KWKSFLKTFKSA[dL]KTVLHTALKAISS-NH2; not fully specified)”, in series [1], the “% helix 50% TFE” value is 89%, the “[θ]222 Benign” value is listed as −7,350 deg · cm^2 · dmol^−1, the “[θ]222 50% TFE” value is listed as −25,750 deg · cm^2 · dmol^−1 and the “% helix Benign” value was 25%. For the same substance, in series [2], the “tR (min) 5° C.” value was found to be 45.10 min, the “tR (min) 80° C.” value came to 43.03 min, the “tR (min) Max” value was found to be 46.37 min and the “PA (min) association parameter” value was determined as 3.02 min. For the same substance, the “ΔtR (X-NVL) (min) 5° C.” value in series [2] (non-polar face substitutions, retention time difference relative to native peptide V681 (NVL) at 5° C., relative hydrophobicity) was -3.00 min. The “ΔtR (X-NVL) (min) 80° C.” value in series [2] (non-polar face substitutions, retention time difference relative to native peptide V681 (NVL) at 80° C., relative hydrophobicity) is -2.80 min.

Regarding “PAL: V681 analog with L-Ala at position 11 (polar face) (KWKSFLKTFKAAVKTVLHTALKAISS)”, in series [1], the “% helix 50% TFE” value is given as 95%, the “[θ]222 Benign” value is given as −13,600 deg · cm^2 · dmol^−1, the “[θ]222 50% TFE” value was −27,600 deg · cm^2 · dmol^−1 and the “% helix Benign” value is listed as 47%. Besides, in series [2], the “tR (min) 5° C.” value is recorded as 48.25 min, the “tR (min) 80° C.” value was found to be 46.63 min, the “overall hydrophobicity change relative to PVL” value is “+0.45 min” and the “tR (min) Max” value stood at 50.57 min. For the same substance, in series [2], the “PA (min) association parameter” value is on record as 4.15 min. In series [2] (relative hydrophobicity), the “ΔtR (X-PSL) (min) 5° C.” value turned out to be 0.15 min and the “ΔtR (X-PSL) (min) 80° C.” value worked out at 0.80 min.

Take “PKL: V681 analog with L-Lys at position 11 (polar face) (KWKSFLKTFKKAVKTVLHTALKAISS)”: in series [1], the “% helix 50% TFE” value came out at 94%, the “[θ]222 Benign” value was −5,950 deg · cm^2 · dmol^−1, the “[θ]222 50% TFE” value is given as −27,350 deg · cm^2 · dmol^−1 and the “% helix Benign” value amounted to 21%. Besides, in series [2], the “tR (min) 5° C.” value came to 46.38 min, the “tR (min) 80° C.” value is recorded as 43.89 min, the “overall hydrophobicity change relative to PVL” value is -2.29 min and the “tR (min) Max” value came out at 47.90 min. Moreover, the “PA (min) association parameter” value in series [2] was 3.17 min. Moreover, in series [2] (relative hydrophobicity), the “ΔtR (X-PSL) (min) 5° C.” value was -1.72 min and the “ΔtR (X-PSL) (min) 80° C.” value is -1.94 min.

On to “PLL: V681 analog with L-Leu at position 11 (polar face) (KWKSFLKTFKLAVKTVLHTALKAISS)”, for which, in series [1], the “% helix 50% TFE” value is on record as 99%, the “[θ]222 Benign” value is given as −10,850 deg · cm^2 · dmol^−1, the “[θ]222 50% TFE” value is −28,550 deg · cm^2 · dmol^−1 and the “% helix Benign” value is listed as 37%. In series [2], the “tR (min) 5° C.” value was 48.78 min, the “tR (min) 80° C.” value was determined as 47.51 min, the “tR (min) Max” value is given as 51.23 min and the “PA (min) association parameter” value was 4.33 min. In addition, in series [2] (relative hydrophobicity), the “ΔtR (X-PSL) (min) 5° C.” value came to 0.68 min and the “ΔtR (X-PSL) (min) 80° C.” value is reported as 1.68 min.
